Experimental data: publication PMC5266791 (Cell Reports, 2016)
Values belong to the binder of their own block, whether it stands above or below them.

Columns and labels:
[1] = target: FANCB-FANCL-FAAP100 complex (human, UniProt Q8NB91;Q9NW38;Q0VG06); test: SEC
[2] = target: the molecule itself; test: negative-stain single-particle EM

Sequence of FANCB-FANCL-FAAP100 complex (Q9NW38 whole entry, chain 2 of 2): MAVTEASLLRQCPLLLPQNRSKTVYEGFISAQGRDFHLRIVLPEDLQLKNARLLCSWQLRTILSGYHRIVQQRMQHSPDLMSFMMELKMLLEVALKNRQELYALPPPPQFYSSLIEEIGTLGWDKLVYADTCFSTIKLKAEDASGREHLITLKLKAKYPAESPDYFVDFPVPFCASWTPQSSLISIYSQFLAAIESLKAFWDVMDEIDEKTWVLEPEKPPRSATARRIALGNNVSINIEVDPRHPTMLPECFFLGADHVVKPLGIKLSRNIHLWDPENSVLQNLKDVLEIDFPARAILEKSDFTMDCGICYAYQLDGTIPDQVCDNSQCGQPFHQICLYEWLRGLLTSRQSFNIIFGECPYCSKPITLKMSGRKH
Sequence of FANCB-FANCL-FAAP100 complex (Q0VG06 whole entry, chain 3 of 2): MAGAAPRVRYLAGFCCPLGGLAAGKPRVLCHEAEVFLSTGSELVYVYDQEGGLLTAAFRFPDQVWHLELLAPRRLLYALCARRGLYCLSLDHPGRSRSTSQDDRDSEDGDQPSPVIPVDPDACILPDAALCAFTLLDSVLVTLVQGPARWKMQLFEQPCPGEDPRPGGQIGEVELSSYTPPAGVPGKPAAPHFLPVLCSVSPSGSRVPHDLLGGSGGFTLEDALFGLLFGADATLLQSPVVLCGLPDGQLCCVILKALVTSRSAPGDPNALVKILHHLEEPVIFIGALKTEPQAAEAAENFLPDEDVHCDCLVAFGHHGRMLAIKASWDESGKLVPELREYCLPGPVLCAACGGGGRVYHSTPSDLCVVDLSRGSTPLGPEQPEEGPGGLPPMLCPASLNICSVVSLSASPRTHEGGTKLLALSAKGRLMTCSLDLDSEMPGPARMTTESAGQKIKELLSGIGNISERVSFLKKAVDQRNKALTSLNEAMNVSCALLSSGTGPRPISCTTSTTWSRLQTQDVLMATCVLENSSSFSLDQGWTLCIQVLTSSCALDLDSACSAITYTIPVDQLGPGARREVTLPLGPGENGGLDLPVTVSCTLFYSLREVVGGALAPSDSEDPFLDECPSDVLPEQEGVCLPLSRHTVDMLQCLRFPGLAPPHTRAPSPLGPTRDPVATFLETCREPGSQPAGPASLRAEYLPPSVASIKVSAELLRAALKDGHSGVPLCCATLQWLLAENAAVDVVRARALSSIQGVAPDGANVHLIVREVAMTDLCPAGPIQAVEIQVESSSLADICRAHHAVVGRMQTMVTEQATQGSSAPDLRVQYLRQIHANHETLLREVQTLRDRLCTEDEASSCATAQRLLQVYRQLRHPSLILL

- binding result [1]: binds
B1: (MBP)FANCC-FANCE-FANCF complex (complex)
chain 1: MAQDSVDLSCDYQFWMQKLSVWDQASTLETQQDTCLHVAQFQEFLRKMYEALKEMDSNTVIERFPTIGQLLAKACWNPFILAYDESQKILIWCLCCLINKEPQNSGQSKLNSWIQGVLSHILSALRFDKEVALFTQGLGYAPIDYYPGLLKNMVLSLASELRENHLNGFNTQRRMAPERVASLSRVCVPLITLTDVDPLVEALLICHGREPQEILQPEFFEAVNEAILLKKISLPMSAVVCLWLRHLPSLEKAMLHLFEKLISSERNCLRRIECFIKDSSLPQAACHPAIFRVVDEMFRCALLETDGALEIIATIQVFTQCFVEALEKASKQLRFALKTYFPYTSPSLAMVLLQDPQDIPRGHWLQTLKHISELLREAVEDQTHGSCGGPFESWFLFIHFGGWAEMVAEQLLMSAAEPPTALLWLLAFYYGPRDGRQQRAQTMVQVKAVLGHLLAMSRSSSLSAQDLQTVAGQGTDTDLRAPAQQLIRHLLLNFLLWAPGGHTIAWDVITLMAHTAEITHEIIGFLDQTLYRWNRLGIESPRSEKLARELLKELRTQV
chain 2: MATPDAGLPGAEGVEPAPWAQLEAPARLLLQALQAGPEGARRGLGVLRALGSRGWEPFDWGRLLEALCREEPVVQGPDGRLELKPLLLRLPRICQRNLMSLLMAVRPSLPESGLLSVLQIAQQDLAPDPDAWLRALGELLRRDLGVGTSMEGASPLSERCQRQLQSLCRGLGLGGRRLKSPQAPDPEEEENRDSQQPGKRRKDSEEEAASPEGKRVPKRLRCWEEEEDHEKERPEHKSLESLADGGSASPIKDQPVMAVKTGEDGSNLDDAKGLAESLELPKAIQDQLPRLQQLLKTLEEGLEGLEDAPPVELQLLHECSPSQMDLLCAQLQLPQLSDLGLLRLCTWLLALSPDLSLSNATVLTRSLFLGRILSLTSSASRLLTTALTSFCAKYTYPVCSALLDPVLQAPGTGPAQTELLCCLVKMESLEPDAQVLMLGQILELPWKEETFLVLQSLLERQVEMTPEKFSVLMEKLCKKGLAATTSMAYAKLMLTVMTKYQANITETQRLGLAMALEPNTTFLRKSLKAALKHLGP
chain 3: MESLLQHLDRFSELLAVSSTTYVSTWDPATVRRALQWARYLRHIHRRFGRHGPIRTALERRLHNQWRQEGGFGRGPVPGLANFQALGHCDVLLSLRLLENRALGDAARYHLVQQLFPGPGVRDADEETLQESLARLARRRSAVHMLRFNGYRENPNLQEDSLMKTQAELLLERLQEVGKAEAERPARFLSSLWERLPQNNFLKVIAVALLQPPLSRRPQEELEPGIHKSPGEGSQVLVHWLLGNSEVFAAFCRALPAGLLTLVTSRHPALSPVYLGLLTDWGQRLHYDLQKGIWVGTESQDVPWEELHNRFQSLCQAPPPLKDKVLTALETCKAQDGDFEVPGLSIWTDLLLALRSGAFRKRQVLGLSAGLSSV

B2: FANCB (natural protein)
chain: MTSKQAMSSNEQERLLCYNGEVLVFQLSKGNFADKEPTKTPILHVRRMVFDRGTKVFVQKSTGFFTIKEENSHLKIMCCNCVSDFRTGINLPYIVIEKNKKNNVFEYFLLILHSTNKFEMRLSFKLGYEMKDGLRVLNGPLILWRHVKAFFFISSQTGKVVSVSGNFSSIQWAGEIENLGMVLLGLKECCLSEEECTQEPSKSDYAIWNTKFCVYSLESQEVLSDIYIIPPAYSSVVTYVHICATEIIKNQLRISLIALTRKNQLISFQNGTPKNVCQLPFGDPCAVQLMDSGGGNLFFVVSFISNNACAVWKESFQVAAKWEKLSLVLIDDFIGSGTEQVLLLFKDSLNSDCLTSFKITDLGKINYSSEPSDCNEDDLFEDKQENRYLVVPPLETGLKVCFSSFRELRQHLLLKEKIISKSYKALINLVQGKDDNTSSAEEKECLVPLCGEEENSVHILDEKLSDNFQDSEQLVEKIWYRVIDDSLVVGVKTTSSLKLSLNDVTLSLLMDQAHDSRFRLLKCQNRVIKLSTNPFPAPYLMPCEIGLEAKRVTLTPDSKKEESFVCEHPSKKECVQIITAVTSLSPLLTFSKFCCTVLLQIMERESGNCPKDRYVVCGRVFLSLEDLSTGKYLLTFPKKKPIEHMEDLFALLAAFHKSCFQITSPGYALNSMKVWLLEHMKCEIIKEFPEVYFCERPGSFYGTLFTWKQRTPFEGILIIYSRNQTVMFQCLHNLIRILPINCFLKNLKSGSENFLIDNMAFTLEKELVTLSSLSSAIAKHESNFMQRCEVSKGKSSVVAAALSDRRENIHPYRKELQREKKKMLQTNLKVSGALYREITLKVAEVQLKSDFAAQKLSNL
- stoichiometry N [2]: 2
